Results on one substance are retold here after patent US7491501B2, “Methods for identifying modulators of intracellular aggregate formation” (Auburn University, priority 2003, dated 2009).

Holding throughout (format): cell-based
One test deals with T1, p62-TRAF6 interaction (Homo sapiens, UniProt Q9Y4K3).
T1 construct: endogenous in cells; host or cells: HEK 293
T1 sequence (Q9Y4K3 1-522): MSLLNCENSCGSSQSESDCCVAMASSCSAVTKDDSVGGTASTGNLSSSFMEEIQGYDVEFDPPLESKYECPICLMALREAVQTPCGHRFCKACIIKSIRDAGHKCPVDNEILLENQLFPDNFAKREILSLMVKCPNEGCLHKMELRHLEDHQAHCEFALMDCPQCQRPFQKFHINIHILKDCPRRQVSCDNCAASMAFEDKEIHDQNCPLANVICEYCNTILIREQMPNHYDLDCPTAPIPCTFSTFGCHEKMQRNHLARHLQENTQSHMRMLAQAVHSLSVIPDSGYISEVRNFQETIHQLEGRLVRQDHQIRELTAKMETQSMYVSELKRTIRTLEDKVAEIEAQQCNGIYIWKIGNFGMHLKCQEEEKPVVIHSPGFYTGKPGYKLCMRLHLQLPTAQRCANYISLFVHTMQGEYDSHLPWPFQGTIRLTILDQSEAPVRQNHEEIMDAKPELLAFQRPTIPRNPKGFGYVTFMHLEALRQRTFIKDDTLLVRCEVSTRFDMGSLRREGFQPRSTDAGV
In words: p62-TRAF6 interaction in HEK cells after IL-1 stimulation, p62 UBA domain pull-down (FIG. 2C). As to conditions: increasing doses of peptide. The protocol:
GST Pull-Down Assay—Glutathione beads coupled with p62 UBA domain were washed three times with binding buffer (20 mM Tris-HCl, pH 7.6, 50 mM NaCl, 0.1% Nonidet P-40, […], 1 mM phenylmethylsulfonyl fluoride) containing 25 μg/ml of BSA. For each mg of lysate, 2.5 μg of GST-UBA domain was added and rotated for 2 h at room temperature. The beads were washed 3 times with binding buffer and boiled in SDS-PAGE sample buffer, followed by separation employing a 7.5% SDS-gel, and western blotting with appropriate antibody.
A peptide (plain type, SEQ ID NO. 6) containing the TRAF6-binding motif present in p62 (underlined type) along with the hydrophobic sequence containing the cell-permeable motif (italicized type) from Kaposi fibroblast growth factor signal sequence was synthesized ([…]-[…]) (SEQ ID NO. 4) or a control peptide with mutant amino acids in the interaction motif (AAVA […]-[…])(SEQ ID NO. 5). […] HEK cells were treated or not with increasing doses of control or TRAF6 inhibitory peptide, followed by stimulation with IL-1. Lysates were prepared and included in a pull-down employing the UBA domain of p62. Should the p62-UBA domain bind K63-polyubiquitinated substrate proteins, a dose-dependent reduction in interaction of the lysates would occur with lysates prepared from cells pretreated with TRAF6 inhibitory peptide. In fact, this is what was found (FIG. 2C).

Test [1] addresses T2, interaction of p62 with TRAF6 (Rattus norvegicus, UniProt B5DF45).
T2 construct: followed by NGF stimulation for 15 min and immunoprecipitation of TRAF6 followed by Western blotting for p62; endogenous in cells; host or cells: PC12
The test can be described thus: TRAF6 immunoprecipitation and Western blot for p62/UbcH7 in NGF-stimulated PC12 cells. The note with it: NGF 15 min. On the procedure: Immunoprecipitation and Western blotting—Each mg of lysate/inclusion bodies was incubated with 41 ng of primary antibody at 4° C. for 3 h and then with 50 μl of 50% agarose-coupled secondary antibody for 2 more hours at 4 C. The beads were washed three times with lysis buffer, eluted by adding SDS-PAGE sample buffer, and subjected to SDS-PAGE in 7.5-12% acrylamide gels. Immunoblotting was performed on nitrocellulose membranes and analyzed by western blotting with ECL detection reagents (Amersham Biosciences).
(§1) The region spanning amino acids 225-251 is necessary for the interaction of p62 with TRAF6. The peptide containing TRAF6 binding motif in p62 along with the hydrophobic sequence containing the cell-permeable motif from Kaposi fibroblast growth factor sequence, […]-[…] (SEQ ID NO. 4) and control peptide […]-[…] (SEQ ID NO. 5) was synthesized. As a preliminary step, PC12 cells were pretreated with various concentrations of peptide for 5 h, followed by NGF stimulation for 15 min and immunoprecipitation with TRAF6 and western blotted with p62. […] The peptide was then tested for its ability to block NGF-induced tau polyubiquitination (FIG. 13A).
(§2) The peptide containing the TRAF6-binding motif in p62 along with the hydrophobic sequence containing the cell-permeable motif from Kaposi fibroblast growth factor signal sequence […]-[…] (SEQ ID NO. 4) and control peptide […]-[…] (SEQ ID NO. 5) was synthesized. As a preliminary step, PC12 cells were pretreated with different concentrations (75-300 μM) of TRAF6 peptide for 5 hours followed by NGF stimulation for 15 min and immunoprecipitation of TRAF6 followed by Western blotting for p62. […] To address whether TRAF6 peptide affects the interaction of p62 and UbcH7 with TRAF6, PC12 cells were treated with or without 150 μM of control peptide or TRAF6 peptide for 5 hours and then stimulated with NGF for 15 min. By immunoprecipitating TRAF6, TRAF6 peptide (150 μM) abrogated the interaction of p62 with TRAF6, but not UbcH7, upon NGF treatment (FIG. 8A). […] The ability of the TRAF6 peptide to impair the ubiquitination process was investigated. Lysates recovered from NGF treated cells were immunoprecipitated with TrkA receptor antibody and blotted for ubiquitin or the receptor (FIG. 15B). […] The ability of the peptide to interrupt the formation of the functional TrkA-p62-TRAF6-UbcH7 complex on NGF stimulation as well was also investigated. TrkA was immunoprecipitated and blotted for the presence of each protein in the complex (FIG. 15C).
A general note: Immunoblotting shows a protein as a band on a membrane.

A further test relates to tau polyubiquitination. In words: NGF-induced tau polyubiquitination in PC12 cells (FIG. 13A). As to conditions: control not shown. The protocol:
as §1

The test system of the next test is TrkA. In words: NGF-dependent TrkA ubiquitination and TrkA complex formation in PC12 cells (FIG. 15B, 15C). As to conditions: TrkA immunoprecipitation. On the procedure: as §2
The test system of test [2] is internalization of NGF by PC12 cells. The test can be described thus: Internalization of NGF, 125I-NGF binding assay in PC12 cells (FIG. 15D). The note with it: PC12 cells pretreated with peptide (150 μM); control not shown. On the procedure:
Additionally, PC12 cells were pretreated or not with TRAF6 peptide (150 μM) followed by measurement of internalized receptor employing 125I-NGF binding assay (FIG. 15D). […] Similarly, the level of internalized NGF was measured in PC12 cells transfected with wild-type ubiquitin, K48R or K63R ubiquitin mutants (FIG. 15E). Transfection of ubiquitin, or K48R mutant was without any effect on internalization of NGF. By comparison, transfection of K63R ubiquitin mutant totally abrogated internalization of the ligand. […] Thus, p62 serves as an adaptor, as well as, a scaffold for TRAF6-directed ubiquitination and K63 chains play a signaling role for internalization and sorting of the receptor.

T2 sequence (B5DF45 whole entry): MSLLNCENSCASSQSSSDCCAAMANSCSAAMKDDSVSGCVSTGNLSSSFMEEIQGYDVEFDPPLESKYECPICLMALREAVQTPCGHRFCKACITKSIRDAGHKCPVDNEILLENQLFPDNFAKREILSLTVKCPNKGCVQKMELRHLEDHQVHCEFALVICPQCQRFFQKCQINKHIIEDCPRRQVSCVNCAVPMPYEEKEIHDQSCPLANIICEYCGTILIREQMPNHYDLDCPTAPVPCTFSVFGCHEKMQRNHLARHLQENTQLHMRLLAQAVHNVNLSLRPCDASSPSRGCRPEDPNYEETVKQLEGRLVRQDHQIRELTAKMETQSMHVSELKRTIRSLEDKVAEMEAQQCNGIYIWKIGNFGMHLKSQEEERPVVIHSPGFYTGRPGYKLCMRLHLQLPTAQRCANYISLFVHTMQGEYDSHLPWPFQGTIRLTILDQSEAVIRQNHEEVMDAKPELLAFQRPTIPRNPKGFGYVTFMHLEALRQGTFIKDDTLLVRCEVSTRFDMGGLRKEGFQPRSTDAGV
T2 sequence (D3Z8W5 1-154 partner): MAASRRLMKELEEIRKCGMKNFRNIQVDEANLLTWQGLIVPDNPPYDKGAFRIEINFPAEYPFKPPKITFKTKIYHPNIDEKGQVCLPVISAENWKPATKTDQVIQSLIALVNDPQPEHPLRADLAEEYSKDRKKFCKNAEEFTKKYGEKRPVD

With “AAVALLPAVLLALLAP-ESASGPSEDPSVNFLK (AAVALLPAVLLALLAPESASGPSEDPSVNFLK; artificial sequence for cell permeable peptide) [TRAF6 peptide]”, in the test with p62-TRAF6 interaction, the p62-TRAF6 interaction entry was “blocked p62-TRAF6 interaction in a dose-dependent fashion”. In test [1] (150 μM peptide 5 hours), the “interaction of UbcH7 with TRAF6” value is recorded as “not” and the “interaction of p62 with TRAF6” value is on record as “completely abrogated”. The “optimum dose to block the interaction of p62 with TRAF6” value in test [1] (75-300 μM peptide 5 hours, not shown) came to 150 µM. Moreover, in test [1] (peptide 5 h, not shown), the “concentration of peptide found to block TRAF6 interaction with p62” value is “One hundred and fifty”. Further, the NGF-induced tau polyubiquitination entry in the test with tau polyubiquitination is on record as “completely abrogated”. In the test with TrkA (NGF stimulation), the “TRAF6 and UbcH7 interacting with TrkA” value is “eliminated”; the “interaction of p62 and TrkA” value is listed as “did not disrupt”. For the same substance, the “NGF-dependent ubiquitination of TrkA” value in the test with TrkA (NGF treated) is given as “effectively abolish”. Further, the “internalization of NGF” value in test [2] is “significantly blocked”.
